This experiment addresses T1, p53 C-terminal domain (p53CTD, residues 293–393) (UniProt P04637 293-393).
T1 construct: p53 C-terminal domain, residues 293–393; 15N-labeled for NMR; also called p53(293–393); full length p53CTD; source: E. coli (C41 for the 15N-labeled protein), purified as described [23]
The experiment in a line: peptide or protein array; Celluspots peptide array, peptides immobilised; 20 µM p53CTD in 1% milk in TBS-T (50 mM Tris pH 7.5, 110 mM NaCl, 0.05% Tween 20), overnight at 4°C; detected with FL-393 anti-p53 antibody. As to conditions: both partners purified.

T1 sequence (P04637 293-393): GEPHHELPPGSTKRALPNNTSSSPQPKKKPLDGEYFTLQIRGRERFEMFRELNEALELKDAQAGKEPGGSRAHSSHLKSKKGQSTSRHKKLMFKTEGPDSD

B1: PKCα(271–285), peptide on the array (peptide)
peptide: ASGWYKLLNQEEGEY
notes: Protein Kinase C α isoform, residues 271–285; Immobilised on the array; source: bought: Intavis Celluspots peptide array
Take B1: the binding result is recorded as “binds”.

(Values after article PMC3365014 (PLoS ONE, 2012).)
